{"source": "patent US20230212319A1", "about": "“NOVEL ANTIGEN BINDING DOMAINS AND SYNTHETIC ANTIGEN RECEPTORS INCORPORATING THE SAME” (University of Southern California, priority 2020, published 2023)", "molecules": {"B1": {"name": "21988 (protein)", "chain": "MALPVTALLLPLALLLHAARPEVQLLESGGGLVQPGGSLRLSCAASGFTFSSYAMSWVRQAPGKGLEWVSSISGSGDYIYYADSVKGRFTISRDISKNTLYLQMNSLRAEDTAVYYCAKEGTGANSSLADYRGQGTLVTVSSLEDLKNVFPPEVAVFEPSEAEISHTQKATLVCLATGFYPDHVELSWWVNGKEVHSGVCTDPQPLKEQPALNDSRYCLSSRLRVSATFWQNPRNHFRCQVQFYGLSENDEWTQDRAKPVTQIVSAEAWGRADCGFTSESYQQGVLSATILYEILLGKATLYAVLVSALVLMAMVKRKDSRGRAKRSGSGATNFSLLKQAGDVEENPGPTSMDWIWRILFLVGAATGAHSFEVQLLESGGGLIQPGGSLRLSCAASGFTFSSHAMTWVRQAPGKGLEWVSAISGSGDYTHYADSVKGRFTISRDNSKNTVYLQMNSLRAEDSAVYYCAKDEDGGSLLGHRGQGTLVTVSSTRIQNPDPAVYQLRDSKSSDKSVCLFTDFDSQTNVSQSKDSDVYITDKCVLDMRSMDFKSNSAVAWSNKSDFACANAFNNSIIPEDTFFPSPESSCDVKLVEKSFETDTNLNFQNLSVIGFRILLLKVAGFNLLMTLRLWSSRAKRSGSGVKQTLNFDLLKLAGDVESNPGPSRGHMTEYKPTVRLATRDDVPRAVRTLAAAFADYPATRHTVDPDRHIERVTELQELFLTRVGLDIGKVWVADDGAAVAVWTTPESVEAGAVFAEIGPRMAELSGSRLAAQQQMEGLLAPHRPKEPAWFLATVGVSPDHQGKGLGSAVVLPGVEAAERAGVPAFLETSAPRNLPFYERLGFTVTADVEVPEGPRTWCMTRKPGA"}, "B2": {"name": "22062 (protein)", "chain": "MALPVTALLLPLALLLHAARPQVQLVESGGGLVQPGGSLRLSCAASGFTFTNHAMSWVRQAPGKGLELVSSISGNGRTTYYADSVKGRFTISRDISKNTLDLQMNSLRAEDTAVYYCAKDGGETLVDSRGQGTLVTVSSLEVAALEREDLKNVFPPEVAVFEPSEAEISHTQKATLVCLATGFYPDHVELSWWVNGKEVHSGVCTDPQPLKEQPALNDSRYCLSSRLRVSATFWQNPRNHFRCQVQFYGLSENDEWTQDRAKPVTQIVSAEAWGRADCGFTSESYQQGVLSATILYEILLGKATLYAVLVSALVLMAMVKRKDSRGRAKRSGSGATNFSLLKQAGDVEENPGPTSMDWIWRILFLVGAATGAHSFEEVQLLESGGGLVQPGGSLRLSCAASGFTFSSYAMSWVRQAPGKGLEWVSSISGSGDYIYYADSVKGRFTISRDISKNTLYLQMNSLRAEDTAVYYCAKEGTGANSSLADYRGQGTLVTVSSTRIQNPDPAVYQLRDSKSSDKSVCLFTDFDSQTNVSQSKDSDVYITDKCVLDMRSMDFKSNSAVAWSNKSDFACANAFNNSIIPEDTFFPSPESSCDVKLVEKSFETDTNLNFQNLSVIGFRILLLKVAGFNLLMTLRLWSSRAKRSGSGVKQTLNFDLLKLAGDVESNPGPSRGHMTEYKPTVRLATRDDVPRAVRTLAAAFADYPATRHTVDPDRHIERVTELQELFLTRVGLDIGKVWVADDGAAVAVWTTPESVEAGAVFAEIGPRMAELSGSRLAAQQQMEGLLAPHRPKEPAWFLATVGVSPDHQGKGLGSAVVLPGVEAAERAGVPAFLETSAPRNLPFYERLGFTVTADVEVPEGPRTWCMTRKPGA"}, "B3": {"name": "21989 (protein)", "chain": "MALPVTALLLPLALLLHAARPQVQLVESGGGLVQPGGSLRLSCAASGFTFTNHAMSWVRQAPGKGLELVSSISGNGRTTYYADSVKGRFTISRDISKNTLDLQMNSLRAEDTAVYYCAKDGGETLVDSRGQGTLVTVSSLEDLKNVFPPEVAVFEPSEAEISHTQKATLVCLATGFYPDHVELSWWVNGKEVHSGVCTDPQPLKEQPALNDSRYCLSSRLRVSATFWQNPRNHFRCQVQFYGLSENDEWTQDRAKPVTQIVSAEAWGRADCGFTSESYQQGVLSATILYEILLGKATLYAVLVSALVLMAMVKRKDSRGRAKRSGSGATNFSLLKQAGDVEENPGPTSMDWIWRILFLVGAATGAHSFEEVQLLESGGGLVQPGGSLRLSCAASGFTFSSYAMSWVRQAPGKGLEWVSSISGSGDYIYYADSVKGRFTISRDISKNTLYLQMNSLRAEDTAVYYCAKEGTGANSSLADYRGQGTLVTVSSTRIQNPDPAVYQLRDSKSSDKSVCLFTDFDSQTNVSQSKDSDVYITDKCVLDMRSMDFKSNSAVAWSNKSDFACANAFNNSIIPEDTFFPSPESSCDVKLVEKSFETDTNLNFQNLSVIGFRILLLKVAGFNLLMTLRLWSSRAKRSGSGVKQTLNFDLLKLAGDVESNPGPSRGHMTEYKPTVRLATRDDVPRAVRTLAAAFADYPATRHTVDPDRHIERVTELQELFLTRVGLDIGKVWVADDGAAVAVWTTPESVEAGAVFAEIGPRMAELSGSRLAAQQQMEGLLAPHRPKEPAWFLATVGVSPDHQGKGLGSAVVLPGVEAAERAGVPAFLETSAPRNLPFYERLGFTVTADVEVPEGPRTWCMTRKPGA"}, "B4": {"name": "22061 (protein)", "chain": "MALPVTALLLPLALLLHAARPQVQLVESGGGLVQPGGSLRLSCAASGFTFTNHAMSWVRQAPGKGLELVSSISGNGRTTYYADSVKGRFTISRDISKNTLDLQMNSLRAEDTAVYYCAKDGGETLVDSRGQGTLVTVSSLEGSGGGGSGGGGSGEDLKNVFPPEVAVFEPSEAEISHTQKATLVCLATGFYPDHVELSWWVNGKEVHSGVCTDPQPLKEQPALNDSRYCLSSRLRVSATFWQNPRNHFRCQVQFYGLSENDEWTQDRAKPVTQIVSAEAWGRADCGFTSESYQQGVLSATILYEILLGKATLYAVLVSALVLMAMVKRKDSRGRAKRSGSGATNFSLLKQAGDVEENPGPTSMDWIWRILFLVGAATGAHSFEEVQLLESGGGLVQPGGSLRLSCAASGFTFSSYAMSWVRQAPGKGLEWVSSISGSGDYIYYADSVKGRFTISRDISKNTLYLQMNSLRAEDTAVYYCAKEGTGANSSLADYRGQGTLVTVSSTRIQNPDPAVYQLRDSKSSDKSVCLFTDFDSQTNVSQSKDSDVYITDKCVLDMRSMDFKSNSAVAWSNKSDFACANAFNNSIIPEDTFFPSPESSCDVKLVEKSFETDTNLNFQNLSVIGFRILLLKVAGFNLLMTLRLWSSRAKRSGSGVKQTLNFDLLKLAGDVESNPGPSRGHMTEYKPTVRLATRDDVPRAVRTLAAAFADYPATRHTVDPDRHIERVTELQELFLTRVGLDIGKVWVADDGAAVAVWTTPESVEAGAVFAEIGPRMAELSGSRLAAQQQMEGLLAPHRPKEPAWFLATVGVSPDHQGKGLGSAVVLPGVEAAERAGVPAFLETSAPRNLPFYERLGFTVTADVEVPEGPRTWCMTRKPGA"}, "B5": {"name": "22016 (protein)", "chain": "MDWIWRILFLVGAATGAHSQLQLQESGPGLVKPSETLSLTCTVSGGSVSSSSYYWGWIRQPPGKRLELIGSIYYGGSTYFNPSLKTRVTISVDTSKNQFSLKLSSVTAADTAVYYCAGGDTYGPVGQWPSDYRGQGTLVTVSSLEDLKNVFPPEVAVFEPSEAEISHTQKATLVCLATGFYPDHVELSWWVNGKEVHSGVCTDPQPLKEQPALNDSRYCLSSRLRVSATFWQNPRNHFRCQVQFYGLSENDEWTQDRAKPVTQIVSAEAWGRADCGFTSESYQQGVLSATILYEILLGKATLYAVLVSALVLMAMVKRKDSRGRAKRSGSGATNFSLLKQAGDVEENPGPTSMDWIWRILFLVGAATGAHSFEQVQLVESGGGLVQPGGSLRLSCAASGFTFTNHAMSWVRQAPGKGLELVSSISGNGRTTYYADSVKGRFTISRDISKNTLDLQMNSLRAEDTAVYYCAKDGGETLVDSRGQGTLVTVSSTRIQNPDPAVYQLRDSKSSDKSVCLFTDFDSQTNVSQSKDSDVYITDKCVLDMRSMDFKSNSAVAWSNKSDFACANAFNNSIIPEDTFFPSPESSCDVKLVEKSFETDTNLNFQNLSVIGFRILLLKVAGFNLLMTLRLWSSRAKRSGSGVKQTLNFDLLKLAGDVESNPGPSRGHMTEYKPTVRLATRDDVPRAVRTLAAAFADYPATRHTVDPDRHIERVTELQELFLTRVGLDIGKVWVADDGAAVAVWTTPESVEAGAVFAEIGPRMAELSGSRLAAQQQMEGLLAPHRPKEPAWFLATVGVSPDHQGKGLGSAVVLPGVEAAERAGVPAFLETSAPRNLPFYERLGFTVTADVEVPEGPRTWCMTRKPGA"}}, "data": [{"tested_on": "L363 cells", "assay": "JNG assay, co-culture with L363 cells", "assay_type": "cell-based", "settings": "co-culture with L363", "method": "Cellular supernatant is collected and assayed for the induction of cytokines (e.g., IL2).\nJNG (Jurkat cells expressing EGFP under an NFAT promoter) were infected with lentiviral vectors encoding different single chain and multi-chain SARs by spinfection in the presence of 8 µg/ml of Polybrene® (Sigma, Catalog no. H9268). The Jurkat-NFAT-GFP cells are engineered in such a way that the IL-2 promoter, which carries NFAT binding sites, is cloned upstream of the GFP gene. These cells have been used to study signaling via TCR and CAR. The different SARs were stably expressed in Jurkat NFAT-GFP cells by lentiviral mediated gene transfer, followed by selection with puromycin or blasticidin. No drug selection was used in case the construct lacked an antibiotic resistance gene. The SAR-expressing Jurkat-NFAT-GFP cells were cocultured with the target cells at E:T ratio of approximately 1:2 for approximately 4 hours to 18 hours. When the interaction between SIRs and their target antigen results in activation of the NFAT pathway, GFP expression is induced. […] GFP expression was monitored by FACS analysis. The Jurkat-NFAT-GFP (parental) cells were used as control. The structure of different constructs can be determined based on their names. […] The sequence of the other constructs in the table can be similarly determined from their names and by referring to the different Tables of this disclosure that provide the names and SEQ ID NO of the different modules. Alternatively, the composition and modular architecture of the different SAR constructs can be determined from their sequences by bioinformatics tools, including using nucleic acid and amino acids homology searches. A SAR is considered positive in the assay in case the SAR expressing Jurkat-NFAT-GFP cells show greater % GFP positive cells when cultured with the target cell line as compared to parental Jurkat-NFAT-GFP cells. […] In general, the number +/-, +, 2+, 3+, 4+, 5+ refer to approximately 5%, 10%, 20%, 30%, 40% and 50% GFP positive cells. The % of GFP induction in the above assay is dependent not only the relative strength of the SAR but also, among other factors, on the relative level of expression of the SAR in the JNG cells and the relative level of expression of the target antigen in the target cell line. To control for the difference in gene transduction efficiency of the different SAR constructs, the experiment was conducted with JNG cells transduced with SAR constructs co-expressing a drug resistance gene (e.g., puromycin or PAC) followed by drug selection to generate a stable population of SAR-expressing cells. It is to be noted that the drug resistance gene (e.g., PAC) in the SAR constructs is optional and in vivo studies were conducted with SAR constructs lacking the PAC gene.", "values": [{"molecule": "B1", "NFAT-GFP ASSAY: L363": "+ (refer to approximately 5%, 10%, 20%, 30%, 40% and 50% GFP positive cells)"}, {"molecule": "B2", "NFAT-GFP ASSAY: L363": "L363 (+/-) (refer to approximately 5%, 10%, 20%, 30%, 40% and 50% GFP positive cells)"}, {"molecule": "B3", "NFAT-GFP ASSAY: L363": "+ (refer to approximately 5%, 10%, 20%, 30%, 40% and 50% GFP positive cells)"}, {"molecule": "B4", "NFAT-GFP ASSAY: L363": "L363 (2+) (refer to approximately 5%, 10%, 20%, 30%, 40% and 50% GFP positive cells)"}, {"molecule": "B5", "NFAT-GFP ASSAY: L363": "+/- (refer to approximately 5%, 10%, 20%, 30%, 40% and 50% GFP positive cells)"}]}]}
